The record followed here is article PMC3643934, “Identification and Characterization of the Direct Interaction between Methotrexate (MTX) and High-Mobility Group Box 1 (HMGB1) Protein” (PLoS ONE, 2013).

Common to all, as to conditions: both partners purified
The target of assay [1] is T1, extracellular domain of RAGE (M1-A344) (UniProt Q15109 23-344).
T1 construct: signal peptide in the construct; receptor for advanced glycation end products (RAGE), extracellular domain, M1-A344 as printed; The results call it 'chimeric RAGE' without saying what it is fused to; the R&D Systems product with these limits is probably the human RAGE Fc chimera (surmise), in which the signal peptide would be removed on secretion; also called chimeric RAGE; receptor for advanced …
T1 sequence (Q15109 23-344): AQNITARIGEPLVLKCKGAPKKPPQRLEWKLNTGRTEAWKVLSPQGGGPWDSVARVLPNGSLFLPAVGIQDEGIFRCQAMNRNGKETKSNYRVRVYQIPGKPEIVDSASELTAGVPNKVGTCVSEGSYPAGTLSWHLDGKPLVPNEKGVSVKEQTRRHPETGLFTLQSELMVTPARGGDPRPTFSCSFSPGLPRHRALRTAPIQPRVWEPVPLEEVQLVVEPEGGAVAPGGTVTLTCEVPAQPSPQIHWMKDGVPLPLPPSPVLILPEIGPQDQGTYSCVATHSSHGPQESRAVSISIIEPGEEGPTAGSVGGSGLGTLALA
As to the kind of experiment: SPR; Biacore 3000; RAGE immobilised on a CM5 chip by amine coupling up to 5000 RU; Bj 0.31-10 µM injected at 30 µl/min, 120 s association and 120 s dissociation; PBS, 25°C; no MTX; kinetic analysis by global fitting. On the technique in general: In SPR one partner is held on a chip, and binding of the other changes the refractive index at the surface.

Assay [2] concerns the target T1, extracellular domain of RAGE (M1-A344). As to the kind of experiment: SPR; same set-up, Bj 0.31-10 µM injected with 1 mM MTX; equilibrium responses (Req), Lineweaver-Burk plot, noncompetitive inhibition model.
Assay [3] shares this target. The assay is described as follows: SPR; same set-up, no MTX; equilibrium responses (Req), concentration-response curve and Lineweaver-Burk plot.

B1: Bj protein (amino acid residues F88-K181 of HMGB1) (domain or fragment)
chain: FKDPNAPKRPPSAFFLFCSEYRPKIKGEHPGLSIGDVAKKLGEMWNNTAADDKQPYEKKAAKLKEKYEKDIAAYRAKGKPDAAKKGVVKAEKSK
modifications: Paper numbering starts at G1 (initiator Met removed), so entry number = paper number + 1 (F88-K181 -> 89-182; D157 -> D158; Y161 -> Y162). N-terminal 6xHis tag from pTrcHis omitted; expressed in E. …
With B1, the results for the Kd in assay [1], in assay [2] and in assay [3] were 3710 ± 1680 nM, 1390 nM and 1350 nM, respectively. The molecule further gave a koff in assay [1] of 0.00052 ± 0.25 s⁻¹. Moreover, the association rate constant (kon) in assay [1] came to 150 ± 0.01 M⁻¹ s⁻¹.

The Kd is the free concentration of one partner at which half of the binding sites on the other are occupied at equilibrium, for simple one-to-one binding. A lower Kd goes with higher affinity. What is called koff is the rate constant with which the complex falls apart. Read a low koff as slow dissociation. One may read the kon as the second-order rate constant of association.
